Sequences and labels used below:
B1: PDZ and LIM domain protein 2, residues 284 to 339; numbered along this chain, Q96JY6 (parent)
chain: HTCEKCSTSIANQAVRIQEGRYRHPGCYTCADCGLNLKMRGHFWVGDELYCEKHAR

± gives the uncertainty stated by the source.

In the data set the parent is B1. The data set can be described thus: abundance fitness (aPCA) (normalised: wild type 0, dead -1); higher = more abundant; growth selection in yeast, the domain comes from the species named. Conditions: Homo sapiens.
Consider HTCEKCSTSIANQAVRIQEGRYRHPGCYTCADCGLNLKMRSHFWVGDELYCEKHAR, for which the abundance fitness was -0.436 ± 0.12.

HTCEKCSTSIANQAVRIQEGRCRHPGCYTCADCGLNLKMRGHFWVGDELYCEKHAR: the abundance fitness was -0.348 ± 0.12.

On to HTCEKCSTSIANQAVRIQEGRYRHPGCYTCADCGLNLKMRGHFWVGDELYKEKHAR, for which the abundance fitness is -0.839 ± 0.26.

As for HTCEKCSTSIANQAVRIQEGRYRHPGCYTCADCGLNLKMRGHFWVGDELYTEKHAR, the abundance fitness is -1.16 ± 0.27.

In the case of HTCEKCSTSIANQAVRIQEGRYRHPGCYTCADCGLNLKMRGHFWVGDELYEEKHAR, the abundance fitness is -0.219 ± 0.16.

On to HTCEKCSTSIANQAVRIQEGRYRHPGCYTCADCGLNLKMRGHFWVGDELYPEKHAR, for which the abundance fitness is -0.614 ± 0.14.

For the variant HTCEKCSTSIANQAVRIQEGRYRHPGCYTCADCGLNLKMRGHFWVIDELYCEKHAR, the abundance fitness was -0.223 ± 0.18.

For HTCEKCSTSIANQAVRIQEGRYRHPGCYTCADCGLNLKMRGHFWVPDELYCEKHAR, the abundance fitness was -0.324 ± 0.093.

As to HTCEKCSTSIANQAVRIQEGRYRHPGCYTCADCGLNLKMRGHFWVVDELYCEKHAR, the abundance fitness was -0.226 ± 0.081.

Consider HTCEKCSTSIANQAVRIQEGRYRHPGCYTCADCGLNLKFRGHFWVGDELYCEKHAR, for which the abundance fitness was -0.186 ± 0.069.

As to HTCEKCSTWIANQAVRIQEGRYRHPGCYTCADCGLNLKMRGHFWVGDELYCEKHAR, the abundance fitness is -1.01 ± 0.14.

As to HTCEKCSTMIANQAVRIQEGRYRHPGCYTCADCGLNLKMRGHFWVGDELYCEKHAR, the abundance fitness was -0.62 ± 0.11.

For the variant HTCEICSTSIANQAVRIQEGRYRHPGCYTCADCGLNLKMRGHFWVGDELYCEKHAR, the abundance fitness came out at 0.463 ± 0.14.

HTCEKCSTSIANQAVRIQEGRYIHPGCYTCADCGLNLKMRGHFWVGDELYCEKHAR: the abundance fitness is -0.69 ± 0.21.

HTCEKCSTSIANQAVRIQEGVYRHPGCYTCADCGLNLKMRGHFWVGDELYCEKHAR: the abundance fitness is 0.11 ± 0.099.

As for HTCEKCSTSIANQAVRIQEGCYRHPGCYTCADCGLNLKMRGHFWVGDELYCEKHAR, the abundance fitness was -0.069 ± 0.12.

As to HTCEKCSTSIANQAVRIQEGPYRHPGCYTCADCGLNLKMRGHFWVGDELYCEKHAR, the abundance fitness is -0.101 ± 0.11.

Take HTCEKCSTSIANQAVYIQEGRYRHPGCYTCADCGLNLKMRGHFWVGDELYCEKHAR: the abundance fitness amounted to 0.029 ± 0.11.

Turning to HTCEKCSTSIANQAVRIQEGRYRHPGCYTCADCGLNLKMRGHAWVGDELYCEKHAR, the abundance fitness was -0.189 ± 0.088.

On to HTCEKCSTSIANQAVRIQEGRYRHPGCYTCADCGLNLKMRGHCWVGDELYCEKHAR, for which the abundance fitness was 0.101 ± 0.13.

With HTCEKCSTSIANQAVRIQEGRYRHPGCYTCADCGLNLKMRGHPWVGDELYCEKHAR, the abundance fitness was -0.058 ± 0.084.

Take HTCEKCSTSIANQAVRIQEGRYRHPGCYTCADCGLNLKMRGHTWVGDELYCEKHAR: the abundance fitness is -0.04 ± 0.085.

Turning to HTCEKCSTSIANQAVRIQEGRYRHPGCYTCADCGLNLEMRGHFWVGDELYCEKHAR, the abundance fitness came to 0.311 ± 0.071.

For the variant HTCEKCSTSIANQAVRIQEGRYRHPGCYTCADCGLNLRMRGHFWVGDELYCEKHAR, the abundance fitness was -0.366 ± 0.076.

For the variant HTCEKCSTSIANQAVRIQEGRYRHPGCYTCADCGLNLNMRGHFWVGDELYCEKHAR, the abundance fitness is -0.124 ± 0.15.

As to HTCEKCSTSIANQAVRIQEGRYRHPGCYTCADCGLKLKMRGHFWVGDELYCEKHAR, the abundance fitness was -0.478 ± 0.12.

As for HTCEKCSTSIANQAVRIQEGRYRHPGCYTCADCGLGLKMRGHFWVGDELYCEKHAR, the abundance fitness is -0.093 ± 0.067.

Turning to HTCEKCSTSIANQAVRIQEGRYRHPGCYTCADCGLHLKMRGHFWVGDELYCEKHAR, the abundance fitness was -0.275 ± 0.18.

For HTCEKCSTSIANQAVRIQEGRYRHPGCYTCADCGLNLKMRGHFWWGDELYCEKHAR, the abundance fitness was -0.116 ± 0.094.

HTCEKCSTSIANQAVRIQEGRYRHPGCYTCADCGLNLKMRGHFWRGDELYCEKHAR: the abundance fitness came out at 0.108 ± 0.051.

On to HTCEKCSTSTANQAVRIQEGRYRHPGCYTCADCGLNLKMRGHFWVGDELYCEKHAR, for which the abundance fitness was -0.14 ± 0.15.

For HTCEKCSTSNANQAVRIQEGRYRHPGCYTCADCGLNLKMRGHFWVGDELYCEKHAR, the abundance fitness was -0.119 ± 0.064.

In the case of HTTEKCSTSIANQAVRIQEGRYRHPGCYTCADCGLNLKMRGHFWVGDELYCEKHAR, the abundance fitness is -0.586 ± 0.09.

HTHEKCSTSIANQAVRIQEGRYRHPGCYTCADCGLNLKMRGHFWVGDELYCEKHAR: the abundance fitness is -0.399 ± 0.18.

As to HTCEKCSTSIANQAVRIQEGRYRHPGCYTCADCGLNKKMRGHFWVGDELYCEKHAR, the abundance fitness is -0.502 ± 0.14.

Consider HTCEKCSTSIANQAHRIQEGRYRHPGCYTCADCGLNLKMRGHFWVGDELYCEKHAR, for which the abundance fitness is -0.099 ± 0.19.

HTCEKCSTSIANQAGRIQEGRYRHPGCYTCADCGLNLKMRGHFWVGDELYCEKHAR: the abundance fitness was -0.33 ± 0.06.

For the variant HTCEKCSTSIANQAVRIQEGRYRHPGCYTLADCGLNLKMRGHFWVGDELYCEKHAR, the abundance fitness was -1.03 ± 0.14.

HTCEKCSTSIANQAVRIQEGRYRHPGCYTTADCGLNLKMRGHFWVGDELYCEKHAR: the abundance fitness was -0.642 ± 0.07.

Regarding HTCEKCSTSIANQAVRIQEGRYRHPGCYTEADCGLNLKMRGHFWVGDELYCEKHAR, the abundance fitness was -0.834 ± 0.075.

As for HTCEKCSTSIANQKVRIQEGRYRHPGCYTCADCGLNLKMRGHFWVGDELYCEKHAR, the abundance fitness was -0.417 ± 0.093.

For the variant HTCEKCSTSIANQVVRIQEGRYRHPGCYTCADCGLNLKMRGHFWVGDELYCEKHAR, the abundance fitness was -0.208 ± 0.092.

In the case of HTCEKCSTSIANQAVRIQEGRYRHPGCYTCADCGLNLKMRGHFWVGDELYCEKIAR, the abundance fitness is -0.755 ± 0.093.

Take HTCEKCSTSIANQAVRIQEGRYRHPGCYTCADCGLNLKMRGHFWVGDELYCEKQAR: the abundance fitness is -0.759 ± 0.15.

On to HTCEKCSTSIANQAVRIQEGRYRHPGCYTCASCGLNLKMRGHFWVGDELYCEKHAR, for which the abundance fitness is -0.193 ± 0.072.

HTCEKCFTSIANQAVRIQEGRYRHPGCYTCADCGLNLKMRGHFWVGDELYCEKHAR: the abundance fitness is -0.137 ± 0.073.

As for HTCEKCDTSIANQAVRIQEGRYRHPGCYTCADCGLNLKMRGHFWVGDELYCEKHAR, the abundance fitness was -0.55 ± 0.11.

Values taken from the Human Domainome abundance scans (Beltran et al. 2025).
